The text below walks through data of paper PMC8185509 (Molecular Medicine Reports, 2021).

The target in the assay is T1, optic atrophy 1, Myc-tagged (OPA1-myc) (UniProt O60313-1 88-960).
T1 sequence (looked up): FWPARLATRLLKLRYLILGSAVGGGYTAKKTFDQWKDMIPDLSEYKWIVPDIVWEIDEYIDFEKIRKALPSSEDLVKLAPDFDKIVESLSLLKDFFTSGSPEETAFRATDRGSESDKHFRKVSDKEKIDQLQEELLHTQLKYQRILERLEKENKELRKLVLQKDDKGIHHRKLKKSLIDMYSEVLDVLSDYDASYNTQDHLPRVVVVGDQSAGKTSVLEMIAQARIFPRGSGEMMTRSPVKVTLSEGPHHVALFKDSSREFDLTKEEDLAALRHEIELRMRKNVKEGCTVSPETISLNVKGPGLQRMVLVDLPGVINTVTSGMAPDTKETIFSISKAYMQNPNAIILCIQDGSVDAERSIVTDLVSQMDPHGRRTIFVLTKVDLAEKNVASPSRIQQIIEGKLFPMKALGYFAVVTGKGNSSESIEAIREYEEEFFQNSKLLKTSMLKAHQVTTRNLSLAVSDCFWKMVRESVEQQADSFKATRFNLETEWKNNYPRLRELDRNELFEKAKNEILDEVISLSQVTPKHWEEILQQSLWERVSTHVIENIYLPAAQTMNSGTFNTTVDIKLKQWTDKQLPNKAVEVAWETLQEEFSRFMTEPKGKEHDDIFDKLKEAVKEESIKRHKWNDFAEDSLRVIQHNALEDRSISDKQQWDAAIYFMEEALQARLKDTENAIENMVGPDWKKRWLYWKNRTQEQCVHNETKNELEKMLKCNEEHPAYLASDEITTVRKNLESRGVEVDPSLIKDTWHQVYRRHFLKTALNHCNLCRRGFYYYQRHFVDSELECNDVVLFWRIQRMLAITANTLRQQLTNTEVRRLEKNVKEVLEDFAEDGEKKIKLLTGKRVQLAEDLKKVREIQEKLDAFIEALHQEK
The assay is described as follows: pull-down.

B1: recombinant GST-fused HIGD-1B (natural protein, human, UniProt Q9P298 1-99, looked up)
chain: MSANRRWWVPPDDEDCVSEKLLRKTRESPLVPIGLGGCLVVAAYRIYRLRSRGSTKMSIHLIHTRVAAQACAVGAIMLGAVYTMYSDYVKRMAQDAGEK
In the case of B1, the binding result is recorded as “binds”.
